In this assay the target is A型FMDV毒株. Nature of the assay: cell-based or functional assay.

B1: A型口蹄疫病毒中和抗体Ab1 (VHH)
VHH: QVQLQESGGGLVQAGGSLRLSCVYSGFTFGHYSMGWYRQAPGKEREFVAAIRRSDGSTDYADSTVKGRFTISRDNAKKTVYLQMNSLKPEDTAVYYCATVRRVATLSGSSSWGQGTQVTVSS
As for B1, the Neu 50 (病毒中和试验) stood at 1.2 µmol/L.

(Values after patent CN117990904A.)
